This experiment has as its target rFel d 1.mFc. As to the kind of experiment: SPR; 25°C; dimeric. In general terms: Surface plasmon resonance follows binding to a sensor surface in real time, without labels.

REGN1908: the dissociation constant (Kd) (commonly the free concentration of one partner at which half of the binding sites on the other are occupied at equilibrium, for simple one-to-one binding) worked out at 0.0316 nM and the koff – broadly, the first-order rate constant of dissociation – is 7.25e-05 s⁻¹.

For the origin of these results see PMC5897525.
